{"source": "patent US20100172938A1", "about": "(NEDERLANDSE ORGANISATIE VOOR TOEGEPAST …, published 2010)", "proteins": {"B1": {"name": "SAN, crystallisation domain of SA-protein (amino acids 1-290), His-tagged (other)", "chain": "ATTINASSSAINTNTNAKYDVDVTPSVSAVAANTANNTPAIAGNLTGTISASYNGKTYTANLKADTENATITAAGSTTAVKPAELAAGVAYTVTVNDVSFNFGSENAGKTVTLGSANSNVKFTGTNSDNQTETNVSTLKVKLDQNGVASLTNVSIANVYAINTTDNSNVNFYDVTSGATVTNGAVSVNADNQGQVNVANVVAAINSKYFAAQYADKKLNTRTANTEDAIKAALKDQKIDVNSVGYFKAPHTFTVNVKATSNTNGKSATLPVVVTVPNVAEPTVASVSKRI", "notes": "Construct from Smit et al. 2001; not shown: His-tag (detected with anti-his antibody)"}, "B2": {"name": "SAN7, N-terminally truncated SAN peptide, His-tagged (other)", "chain": "RGSHHHHHHGSGTSANSNVKFTGTNSDNQTETNVSTLKVKLDQNGVASLTNVSIANVYAINTTDNSNVNFYDVTSGATVTNGAVSVNADNQGQVNVANVVAAINSKYFAAQYADKKLNTRTANTEDAIKAALKDQKIDVNSVGYFKAPHTFTVNVKATSNTNGKSATLPVVVTVPNVAEPTVASVSKRI"}, "B3": {"name": "SAN6, C-terminally truncated SAN peptide, His-tagged (other)", "chain": "RGSHHHHHHGSGTATTINASSSAINTNTNAKYDVDVTPSVSAVAANTANNTPAIAGNLTGTISASYNGKTYTANLKADTENATITAAGSTTAVKPAELAAGVAYTVTVNDVSFNFGSENAGKTVTLG"}, "B4": {"name": "SAN2, C-terminally truncated SAN peptide carrying the first 159 amino acids, His-tagged (other)", "chain": "RGSHHHHHHGSGTATTINASSSAINTNTNAKYDVDVTPSVSAVAANTANNTPAIAGNLTGTISASYNGKTYTANLKADTENATITAAGSTTAVKPAELAAGVAYTVTVNDVSFNFGSENAGKTVTLGSANSNVKFTGTNSDNQTETNVSTLKVKLDQNGVASLTNVSIANVY"}, "B5": {"name": "SAN4, C-terminally truncated SAN peptide carrying the first 149 amino acids, His-tagged (other)", "chain": "RGSHHHHHHGSGTATTINASSSAINTNTNAKYDVDVTPSVSAVAANTANNTPAIAGNLTGTISASYNGKTYTANLKADTENATITAAGSTTAVKPAELAAGVAYTVTVNDVSFNFGSENAGKTVTLGSANSNVKFTGTNSDNQTETNVSTLKVKLDQNGVAS"}}, "key": {"[1]": {"target": "the molecule itself", "experiment": "SDS-PAGE and western blot, self-association"}, "[2]": {"target": "the molecule itself", "experiment": "SDS-PAGE and western blot, self-association (dimer)", "text": "To get further insight in the structure of SAN, vectors were constructed encoding C-terminally (SAN2, 4 and 6 carrying the first 159, 149 and 113 amino acids) or N-terminally truncated peptides (SAN7, 3 and 5 comprising the last 177, 151 and 141 amino acids). The truncated His-tagged genes were expressed in E. coli and the peptides SAN2, SAN4, SAN6 and SAN7 were purified by affinity chromatography. The peptides SAN3 and SAN5 were produced at very low levels and could not be purified probably due to increased sensitivity to E. coli proteases.\nThree DNA fragments encoding C-terminally truncated SAN peptides were amplified by PCR with pBK1 (Boot et al., 1993) as template. Primer CEA1 (5′-[…]-3′, forward: SEQ ID NO. 26) was used in combination with primer SANA1 (5′-[…]-[…]-3′, reverse: SEQ ID NO. 27) to amplify SAN2, SANA2 (5′-[…]-3′, reverse: SEQ ID NO. 28) for SAN4 and SANA3 (5′-[…]-3′, reverse: SEQ ID NO. 29) for SAN6. Fragments encoding three N-terminally truncated peptides were amplified using primer SANB1 (5′-[…]-[…]-3′: SEQ ID NO. 30) for SAN3, SANB2 (5′-[…]-TT-[…]-3′: SEQ ID NO. 31) for SAN5 and SANB3 (5′-GGGGGG-[…]-3′: SEQ ID NO. 32) for SAN7, all three in combination with primer SAN1 (5′[…]-[…]-3′, reverse: SEQ ID NO. 33) and the same template. The fragments were cloned in pGEM-T and sequenced. The fragments encoding SAN2, SAN3, SAN4, SAN5, SAN6 and SAN7 were excised as BamHI-HindIII fragments and introduced in vector pQE30ΔXN (Smit et al., 2001) in frame with an N-terminal six histidine tag. Expression of gene fragments and purification of the gene products was performed as described previously (Smit et al., 2001)."}}}
{"protein": "B1", "values": [{"measurement": "binding result", "setting": "[1]", "value": "binds"}]}
{"protein": "B2", "values": [{"measurement": "binding result", "setting": "[2]", "value": "binds"}]}
{"protein": "B3", "values": [{"measurement": "binding result", "setting": "[2]", "value": "binds"}]}
{"protein": "B4", "values": [{"measurement": "binding result", "setting": "[2]", "value": "binds"}]}
{"protein": "B5", "values": [{"measurement": "binding result", "setting": "[2]", "value": "binds"}]}
